The subject of one test is APP. In words: APP trafficking to cell surface (biotinylation) in N2a/swe cells. The note with it: FG01-transfected N2a/swe cells. The format is cell-based, mouse. The source says:
After treated with biotin or DMSO, membrane protein and total cell lysates were subjected to Western blots for APP.

A further test concerns CDK5. In words: CDK5 levels by Western blot in transfected HeLa and MFB cells. The note with it: FG01-transfected HeLa and MFB cells. Type of test: cell-based, mouse and human. The text has this:
The expression of CDK5, FG01 and α-tubulin were detected by Western blots in transfected HeLa and MFB cells.
Background: Immunoblotting shows a protein as a band on a membrane.

A further test concerns adenylate cyclases. In words: co-immunoprecipitation of FG01 with adenylate cyclases. The conditions noted are these: N2a cells overexpressing FG01. Type of test: binding, mouse. Here is the method:
After 48-72 hrs, cells were lysed and cell lysates were subjected to immunoprecipitation with mouse IgG, rabbit IgG, myc antibody and adenylyl cyclase (AC) antibody (Santa Cruz Biotechnology, catalog number sc-1701), and then immunoblotted with antibodies against adenylyl cyclase (AC) and myc, respectively.
Cells transfected with FG01 were lysed in either CHAPSO buffer (1% CHAPSO, 25 mM HEPES, pH7.4, 150 mM NaCl, and 2 mM EDTA supplemented with protease inhibitors) or in NP40 buffer (1% NP40 in phosphate buffered saline, supplemented with protease inhibitors). Lysates were immunoprecipitated using mouse IgG, rabbit IgG, and antibodies against Myc or adenylate cyclases and Trueblot™ IP beads (eBioscience), followed by Western blot with antibodies against Myc or adenylate cyclases.

B1: FG01: 141 amino acid transmembrane protein encoded by mouse retrogene fg01 (SEQ ID NO:2); expressed from transfected vector or transgene (protein)
chain: MQSQQRNIGYFNHLKADSRNITYSMTFSTKSSNQNFIIFLNEVQAAIIGHERCDLLPVLNELHPDALPDGRIWLFGLNPYFFQHNSLCMRGTPKRIGLQGCAQVGFLVLFVMPLLIPSVTAELPGSSETTTLAHLAGATGP
modifications: Myc and His6 tags; homo sapien
notes: expressed from transfected vector or transgene
On to B1, for which the “APP trafficking to cell surface” value in the test with APP is reported as “stimulates”. Further, the “levels of CDK5” value with CDK5 was “did not change”. Also, the “interaction with adenylate cyclases” value in the test on adenylate cyclases is recorded as “interacts”.

The values are drawn from patent publication US20090233993A1, “COMPOSITIONS AND METHODS FOR INHIBITING GSK3 ACTIVITY AND USES THEREOF” (Burnham Institute for Medical Research, priority 2008, published 2009).
